Positions count from the first letter of the chain named. Names may count otherwise.
T1: cynomolgus monkey FcγRIIa1 extracellular domain, C-terminal His-tag (cynomolgus monkey)
T1 construct: also called cyno FcγRIIa1; cynoFcgRIIa1; not shown: His-tag added to C-terminus
T1 chain: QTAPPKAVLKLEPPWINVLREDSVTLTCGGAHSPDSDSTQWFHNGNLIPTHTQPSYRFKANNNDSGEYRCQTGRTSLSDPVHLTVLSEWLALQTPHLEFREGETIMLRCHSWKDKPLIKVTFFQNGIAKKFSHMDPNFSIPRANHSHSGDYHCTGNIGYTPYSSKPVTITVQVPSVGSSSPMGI

T2: cynomolgus monkey FcγRIIb extracellular domain, C-terminal His-tag (cynomolgus monkey)
T2 construct: also called cyno FcγRIIb; cynoFcγRIIb; not shown: His-tag added to C-terminus
T2 chain: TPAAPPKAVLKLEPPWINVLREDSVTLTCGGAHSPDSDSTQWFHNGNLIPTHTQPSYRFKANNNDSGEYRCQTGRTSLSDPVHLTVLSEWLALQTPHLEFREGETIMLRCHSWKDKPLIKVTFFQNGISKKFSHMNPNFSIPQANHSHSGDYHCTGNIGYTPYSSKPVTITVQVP

T3: human FcγRIIb extracellular domain, C-terminal His-tag (human, UniProt P31994 43-217)
T3 construct: also called humanFcgRIIb; not shown: His-tag added to C-terminus
T3 sequence: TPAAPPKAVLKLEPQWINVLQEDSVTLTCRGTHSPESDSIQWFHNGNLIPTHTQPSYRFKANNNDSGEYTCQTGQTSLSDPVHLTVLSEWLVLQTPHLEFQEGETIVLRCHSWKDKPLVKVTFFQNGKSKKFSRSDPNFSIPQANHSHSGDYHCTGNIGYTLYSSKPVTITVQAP

B1: M103205H795-MY351 / M103202L889-SK1 (antibody, human IgG1, kappa)
heavy: QVTLKESGPVLVKPTETLTLTCTVSGIDLSHDDISWVRQAPGKGLEWVGIISYAGSTYYASWAKGRLTISKDTSKNQVVLTMTNMDPVDTATYYCARGVPAYSHGGDLWGQGTLVTVSSASTKGPSVFPLAPSSKSTSGGTAALGCLVKDYFPEPVTVSWNSGALTSGVHTFPAVLQSSGLYSLSSVVTVPSSSLGTQTYICNVNHKPSNTKVDKKVEPKSCDKTHTCPPCPAPELLNGPSVFLFPPKPKDTLMISRTPEVTCVVVDVSDEDPEVKFNWYVDGVEVHNAKTKPREEQYNSTYRVVSVLTVLHRDWLNGKEYKCKVSNKALPKPIEKTISKAKGQPREPQVYTLPPSREEMTKNQVSLTCLVKGFYPSDIAVEWESNGQPENNYKTTPPVLDSDGSFFLYSKLTVKKSRWQQGNVFSCSVMHEALHNHYTQKSLSLSP
light: DIVMTQSPATLSLSPGERATLSCTSSQSVYHANWLSWFQQKPGQPPKLLIYWASTLAYGVPSRFSGSGSGTDFTLTISSLQPEDAATYYCAGGYGGGRYAFGQGTKVEIKRTVAAPSVFIFPPSDEQLKSGTASVVCLLNNFYPREAKVQWKVDNALQSGNSQESVTEQDSKDSTYSLSSTLTLSKADYEKHKVYACEVTHQGLSSPVTKSFNRGEC
notes: CH with G236N/H268D/Q311R/A330K/D413K against SG1 (EU numbering); also called MS1032LO06-MY351
B2: M103205H795-PK2 / M103202L889-SK1 (antibody, human IgG1, kappa)
heavy: B1 heavy with D270E, R313Q, P398M, S402R
light: B1 light
notes: CH with G236N/H268E/A330K/P396M/S400R/D413K against SG1 (EU numbering); also called MS1032LO06-PK2; MS103205H795-PK2

What was measured:
Experiment in all cases: SPR (BIACORE); KD of SG1 / KD of variant;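 note: relative to parent M103205H795-SG1 carrying the SG1 human heavy chain constant region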
[1] = biological target: T1, cynomolgus monkey FcγRIIa1 …
[2] = biological target: T2, cynomolgus monkey FcγRIIb extracellular …
[3] = biological target: T3, human FcγRIIb extracellular domain, …

Row | Binder | KD fold (SG1 = 1) [1] | KD fold (SG1 = 1) [2] | KD fold (SG1 = 1) [3]
1 | B1 | 3.5 fold | 5.1 fold | 3.8 fold
2 | B2 | 2.5 fold | 4.7 fold | 7.8 fold

— US20200317768A1 (published 2020)
